Results reported in publication PMC3516566, “Identification of an Acinetobacter baumannii Zinc Acquisition System that Facilitates Resistance to Calprotectin-mediated Zinc Sequestration”.

Biological target: T1, Zur (Acinetobacter baumannii ATCC 17978, UniProt V5VHH0 1-161)
T1 sequence: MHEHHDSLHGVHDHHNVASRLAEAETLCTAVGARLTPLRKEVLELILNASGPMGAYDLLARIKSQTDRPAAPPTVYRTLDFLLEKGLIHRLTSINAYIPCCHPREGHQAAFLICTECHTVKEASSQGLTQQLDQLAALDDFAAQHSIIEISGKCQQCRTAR
Assay: EMSA; 100 uM ZnCl2; Zur 0-2500 nM, DNA 250 nM; 20 mM Tris-HCl pH 8.0, 50 mM KCl, 1 mM DTT, 5% glycerol, 100 uM ZnCl2, 20 min at room temperature; 4% polyacrylamide gel
Conditions: protein: recombinant; tags: N-terminal 6xHis (pET15b), removed by thrombin; chain copies: 2; label: none (SYBR green stain); blunt

B1: znuA intragenic negative control (dsDNA)
DNA 1: GTTACAAAAATACCTAAGATTAATCGAAT
DNA 2: ATTCGATTAATCTTAGGTATTTTTGTAAC
B1: no binding.
